Assay results: the DeepSol protein solubility set

assay: soluble on expression in E. coli; label from the status in PepcDB or PDB records

Soluble on expression in E. coli, not soluble:
MGSDKIHHHHHHKTLAANAVFATAFVKRDGSFGAAILSEAGKVLHAIDLPDRGHDVTFDPISKRSVVFARQPGTFAVVFDHSGRDAPQTVASISGRHFFGHGVFSPDGALLYATENDFDNAAGVIGIYDARAKFSRVGEFPTYGMGPHELLLLGDGRTMAVANGGIETHPDYGRAELNIATMKPSYVLIDRVTGDLIEKHELPASLHQLSIRHMDTDPSGTVWFGCQYRGPGTDRPLLVGRAVRGKELQLLDMPQDVLSGFRNYIGSVAANLSAGSVAVSSPEGNSLVVIDAASGRVVSSSALVEVCGLAPDGSGFIATTGAGEIIEGSGATRSEPDYVWDNHMLRIERA, MGSDKIHHHHHHMNKIINNILNTCKQYTYILPHKLLRQYIAHYTISIPDTSIKENLTLIPDASGCMIFKFDKKGIESAFWGATTKTTIVKNDIENVLFRVFVEFRPGGVYYLTGLSQRESTDLKISLEDFNTLFSLEVNSIFERTSTIKELVEQLDMLFLSYLLKSNIVDMTIPILENARKQNSIMSVKNISQISCYSERHLNRIFNNSLGMSVKSYLRLLRINLVLQEIQNNKIPFATLAQDIGYYDQSHFINDFKSICGVNPTTYIKNLSDFYNEKYKF, GPGSMDAIHILKENALRLVSAGQPISALHLVEVLCELQPDSDENRSLKIRCLYELREFDSVLKLAKQVTFACDQNSEVFLLAVKAAFELGDLKTCVQYAMTLINADSSKVVAMCFVAKAAELSGDPAKAVRFYKMALEADPFCGEAFSALTERHLLDRWEMLKLIDSLCIPAEVEVYRSTLKARIGSDYLTPGISGVPRTLVLLAGAKKEYESNNLRQALSLTTEILEVEPYHRQTLCLHLCILVDSKATPLLFEKAHFLSKNKCYTELAVYAIGCFYYSLSNYERAGRYFSRASELDCYFAEAWVAYGHCYAKLEEGEQALNVYRRTMNFFPGLNACCTYVGMQYSRVNQRSVARCFFEESLRKNSIDPLVLNELGVLALAEDNPKQALELFQKAYDSLPNRENPSEHSDCILFNLATMYRKLGRYEAAIDYYNQYVRSRPNASHGHCALGFTYHLSGNIKAAISCYHTAESIKPDSFCRDLLRRALELDFGACGRLSWDSERPHLSFSPGEVSFSTVSRRFRSESTAADSVAASPPPRVGRSLDFQHQ, MGSDKIHHHHHHMKTSQLIRKIQEKIDEAMSRLNDLESMEIKTEEYLDTFLALVNNTYKKAEIYNTLVDQWNLLMKQGDEIKRSIEEFKPEYVHHLTEMMKYDGINLLYLRENEHLRAIGIDEIAARTFQEFLKEEELAERSEAFNQAVRKTREQIQQYHMFHYYVSLTDNELKVDENYRLAGNYYRYSIDFFDKNFPYKSIGISRKLENVPELLEKFFRLREKLEGEDPEGDRVRKTLERLYSLSSFDTVEEFNAIIDEWTDLYEAYKQEDPFKTNVLSYSYINKDGRTVQKTYPTYDFLRWLSQRNRKNQEYILNNYLRRITDDPTREGYEIRDPSVVLENRLVEATIKALPNYKSGIMSEIDSLKKMSRMKRKRKEEEIQKKIMTDPFAAVGAKVPEEIKYWLLRRLDVTHPDLYEEWNRITSELQAYLEEVVKQ, MGSDKIHHHHHHMASLDVFHQDAFTTIQLTTAVDKYPFQPTGLGDLNIFEPDPIRTTALAVEQRQGKLVVVPFSERGQEGTQRTTEQREARYFKVPRIMHADTLYANEIQDIRAFGTESELMQVQAEVARRLNGPTGLTSNIEYTWEYHRLAAVQGMLLDADGTVKYNWFDEFGITPPSLVPFNLSAQTPNSLRPIVNGIRRTMARKAQGAFLPTTKIFALCGDLFYDELTNHTDVIRTYLNWSAASELRDDSQGAAFEAFPFAGVTWSNYRGSDDNTTLKIPDDEVHFFPVGAPGVFRVAYAPGESFEWVNTPGKPIYVIPIYDRDRNSFWKMEAYSYPLHICTRPEVLQKGHAGA, MAHHHHHHMHNVYNIFRQGQKRTYMTTALDRKIREVPYLSRYVILEKLKKKPRYMSECVGTPRRAYDYNTFDKIRYKPTFNPYVHLNKDKKYRLDNWKSRDHENFDPLKCYVRGSRKSYDIPYAILPTKDELGMFHPPILSGRYKADIEKQYYMHDLPWVWHKNFYTGTSHFCDNMVIGKKKWYRKEQQNEKMKESMKKINNLVLEYREECKNKKRYNFLEKVVNTLGDEIAHKYIRKIKNIYL, MRSRERNRRPTLDELDRILTYFEQMRDRRRQEIDMLRVIVFALFSTRRQEEITRIRWDLLNESEQSALVTDMKNPGQKYGNDVWCHMPDEAWRVLQSMPKVADEVFPYNSRSVSASFTRACNFLEIEDLHFHDLRHDGVSRLFEMGWDIPKVASVSGHRDWNSMRRYTHLRGNGDPYAGWQWIERVISGPVIEAQVRVKRRAAGRAPLEHHHHHH

Soluble on expression in E. coli, soluble:
SFQGIRQPVTVTELVDSGILRPSTVNELESGQISYDEVGERIKDFLQGSSCIAGIYNETTKQKLGIYEAMKIGLVRPGTALELLEAQAATGFIVDPVSNLRLPVEEAYKRGLVGIEFKEKLLSAERAVTGYNDPETGNIISLFQAMNKELIEKGHGIRLLEAQIATGGIIDPKESHRLPVDIAYKRGYFNEELSEILSDPSDDTKGFFDPNTEENLTYLQLKERCIKDEETGLCLLPLKEKKKQVQTS, EIEEIKITMDVLVASEDVMVTVTKEGYVKRTSLRSYAASNGELPGMKEGDYLLGRYEMNTQDTLLLFTKKGNYLYLPVHQLPDIRWKDNGQHVANLVTVDKDDDILTTLAVKEFSEE, MSLIREQVVRPLNAMVDASEKIKNRNFDVMLEETSSTEMGILSRTFNSMAGDLGKLYRGLEHAVNEKTNKLQMANQSLQVLYHSSQELTASRITASNFQTILRHWVALEGICALRLEIEEEAGKPLILQEGKPSGAVMLQTPLTLDGHHLGFLYWEAGSPEPDRALIDNFALILSRAIYYNQAQRQAEQLLLMEERATIARELHDSLAQSLSYLKIQLTLLKRSVTPLKSDGDLSKTENIIREIDKGLSDAYTQLRELLTTFRLTLTEGSFGQSLLGMLTQLSGQTDAKIELNNALSSIALDAHQQVHLVQLIREATINAIKHAKATKIKVNCQEQQGRVQVTIEDDGVGFDLQDHKINHYGMSIMQERAARLRGELKVESAPGKGCKVVLTYQQSEEKNKNEEGHHHHHH, MSLTPVISAYNWVPPPARGLVRDLRIRWALEELGRPYAVETVLHQDKTAYRAKQPFGQVPAYDDGEVQLFESGAIVLHIAEQDERLLPRDPAARARAIGWMFCALNTLEVPLLQLAELNIFSAGQAWTEGARPKVERWVRQRLGQLAARLGDKTYLDGETFTAGDLLVADVLRQAPDAMLAETPTLVAYRDRCTARPAFQKALAAQLADLNGPPPPGWGEGHHHHHH, MNRHSAGQSTPVRVATLDQLKPGVPTAFDVDGDEVMVVRDGDSVYAISNLCSHAEAYLDMGVFHAESLEIECPLHVGRFDVRTGAPTALPCVLPVRAYDVVVDGTEILVAPKEADHHHHHH, MPKMIMVNKKASESQVMELEKRNYNNPVVLCGFAGSTPTGVLAASYIVETLGMHQVAHLISQHIPPVAVFVGGKLRHPFRIYANNSNTVLVAMCEVPISSAHIYEISNTLMNWIDQVGASEIVIMEGSPANGIPEERPVFAVAEKPKLDKFKKAGIQPADSAIIAGMGGGILNECLVRKITGLSFITPTSVDIPDPGAVLSIIEAINKAYNLKIKTDLLEEQVKALDEQIKKIEEQYKELQEKQKEPQSMYG, MSLTIYVYVLDTLADWEIGYVNSELNSRRFFKKDANRVSLKTVSYSKEPIKTMGGMTIVPDCVIDDIVMSETSVLLLPGADTWNNLEHKAIIKKASELLALNATVAAICGATVALANHGLLDNRPHTSNGAGFLEMFSSSYKGQNSYINELSVWDNNLITASSAGALLWAKQIIAHLDVFESNTLESWYAYFNTGDPKHFYALMESLPDNNEGHHHHHH, MGSLGPKVFKLDQLPGTIGKKAAKGASVKFSESSTQAVIKATYLQVFGRDVYEGQRLKVQEIKLENGEISVRDFVRALAKSDLFRKLYWTPFYVCKAIEYIHRRLLGRPTYGRQENNKYFDIASKKGLYAVVDAILDSLEYTETFGEDTVPYERYLEHHHHHH, MSRVAPRDSAAQAASAVAESVRYQGRKASRQGSEQRRQAILDAAMRLIVRDGVRAVRHRAVAAEAQVPLSATTYYFKDIDDLITDTFALFVERNAEALSAFWSSVEGDLQEMAAVLADDPGARGSLVERIVELAVQYVQVQLTERREHLLAEQAFRQEALLNPRLRELADAHQRILSLGAVHFFQVLGSGQPEQDAKVLTSIILQMEYQGLVDGVEQLAVDEMRAILRRYLNLVMGL, MVSNPVHGLPFLPGTSFKDSTKTAFHRSQTLSYRNGYAIVRRPTVGIGGDRLQFNQLSQAELDELASKAPVLTYGQPKQAPPADFIPAHVAFDKKVLKFDAYFQEDVPMSTEEQYRIRQVNIYYYLEDDSMSVIEPVVENSGILQGKLIKRQRLAKNDRGDHYHWKDLNRGINITIYGKTFRVVDCDQFTQVFLESQGIELNPPEKMALDPYTELRKQPLRKYVTPSDFDQLKQFLTFDKQVLRFYAIWDDTDSMYGECRTYIIHYYLMDDTVEIREVHERNDGIDPFPLLMNRQRVPKVLVENAKNFPQCVLEISDQEVLEWYTAKDFIVGKSLTILGRTFFIYDCDPFTRRYYKEKFGITDLPRIDVSKREPPPVKQELPPYNGFGLVEDSAQNCFALIPKAPKKDVIKMLVNDNKVLRYLAVLESPIPEDKDRRFVFSYFLATDMISIFEPPVRNSGIIGGKYLGRTKVVKPYSTVDNPVYYGPSDFFIGAVIEVFGHRFIILDTDEYVLKYMESNAAQYSPEALASIQNHVRKREAPAPEAESKQTEKDPGVQELEALIDTIQKQLKDHSCKDNIREAFQIYDKEASGYVDRDMFFKICESLNVPVDDSLVKELLRMCSHGEGKINYYNFVRAFSN, MSLEGFIEDASVSLGLRNLYFNRDFRQPGAAQSKQEEWAQGFLLQAKSGYTQGTLGLGVELIGQLGLKLDSSPDRAGSGLLPRHADGRAADDYARLGVAPKLKLSNTELKLGELLPELPILLRNDGRLLPQTFQGGMLTSREIAGLTLHGGQMRSLSQRNSSDHQDLSVDGRGGAFSDRFDYLGAEYRFNAERSQVGLWQARLQDIYRQDYYSLSHKQSFGGWRLGASVGLFDTRDEGAAKLGELENRALTGFFSATRGGHSLGAGYQRMYGDDGMLYIAGTSTPLVNDIQVRNFTSAGERSWQLRYDYDFVALGIPGLTAMARYASGAHARTKAMDDGRAWERDVDVAYVIQSGPLKNLGLRWRNAMLRSNHAADVDENRLILSYSLPLLEGHHHHHH, MEERMEMISERPKESMYSWNKTAEKSDFEAVEALMSMSCSWKSDFKKYVENRPVTPVSDLSEEENLLPGTPDFHTIPAFCLTPPYSPSDFEPSQVSNLMAPAPSTVHFKSLSDTAKPHIAAPFKEEEKSPVSAPKLPKAQATSVIRHTADAQLCNHQTCPMKAASILNYQNNSFRRRTHLNVEAARKNIPCAAVSPNRSKCERNTVADVDEKASAALYDFSVPSSETVICRSQPAPVSPQQKSVLVSPPAVSAGGVPPMPVICQMVPLPANNPVVTTVVPSTPPSQPPAVCPPVVFMGTQVPKGAVMFVVPQPVVQSSKPPVVSPNGTRLSPIAPAPGFSPSAAKVTPQIDSSRIRSHICSHPGCGKTYFKSSHLKAHTRTHTGEKPFSCSWKGCERRFARSDELSRHRRTHTGEKKFACPMCDRRFMRSDHLTKHARRHLSAKKLPNWQMEVSKLNDIALPPTPAPTQ, SAQESLESQEQRARAALRERYLRSLLAMVGHQVSFTLHEGVRVAAHFGATDLDVANFYVSQLQTPIGVQAEALLRCSDIISYTFKP, MAYELPELPYAYDALEPHIDKETMTIHHTKHHNTYVTNLNKAVEGNTALANKSVEELVADLDSVPENIRTAVRNNGGGHANHKLFWTLLSPNGGGEPTGALAEEINSVFGSFDKFKEQFAAAAAGRFGSGWAWLVVNNGKLEITSTPNQDSPLSEGKTPILGLDVWEHAYYLNYQNRRPDYISAFWNVVNWDEVARLYSERK
